Reference: PMC8570500 (2021)

B1: HA-Vpx HIV-2.Gh1 WT [HIV-2 (Ghana-1 strain)] / DCAF1, endogenous (DDB1- and Cul4A-associated factor 1) [human (endogenous in HeLa)] (parent complex)
chain 1: MTDPRERVPPGNSGEETIGEAFEWLDRTIEALNREAVNHLPRELIFQVWQRSWRYWHDDQGMSPSYTKYRYLCLMQKAVFIHFKRGCTCLGGGHGPGGWRSGPPPPPPPGLV
chain 2: not shown

Variants of: B1
Assay: co-immunoprecipitation (anti-Flag IP of TASOR-Flag, western blot band quantification); Ternary read-out: endogenous DCAF1 recovered with TASOR-Flag (m24) in the presence of this HA-Vpx mutant, HeLa cells; lane 12; no value printed for the WT lane

| Variant | screen value |
| --- | --- |
| chain 1 Q47A, chain 1 V48A | 0.2 |

Variants of: B1
Assay: co-immunoprecipitation (anti-Flag IP of TASOR-Flag, western blot band quantification); Ternary read-out: endogenous DCAF1 recovered with TASOR-Flag (m24) in the presence of this HA-Vpx mutant, HeLa cells; lane 10; no value printed for the WT lane

| Variant | screen value |
| --- | --- |
| chain 1 Q47A | 1 |

Variants of: B1
Assay: co-immunoprecipitation (anti-Flag IP of TASOR-Flag, western blot band quantification); Ternary read-out: endogenous DCAF1 recovered with TASOR-Flag (m24) in the presence of this HA-Vpx mutant, HeLa cells; lane 11; no value printed for the WT lane

| Variant | screen value |
| --- | --- |
| chain 1 V48A | 0.5 |
